Columns and labels:
[1] = biological target: IgE on the surface of patients' basophils (human (endogenous in patients' blood)); assay: flow cytometry on cells; EDTA blood of allergic donors preincubated with 026 sdab (0 to 45 µmol/l) for up to 60 min in IL-3-containing stimulation buffer; remaining surface IgE on basophils stained with anti-IgE-FITC
IgE Fc Cε2–4 (human) = assay: SPR; Biacore T200; IgE Fc immobilized (110 RU) on CM5 by NHS/EDC; 026 sdab injected 0.003-50 µg/ml, 25 µl/min; 25 °C; 10 mM monosodium phosphate, 40 mM disodium phosphate, 100 mM NaCl, pH 7.4, 0.01% Tween-20; 1:1 binding model

IgE on the surface of patients' basophils (human (endogenous in patients' blood)), sequence (P01854 whole entry): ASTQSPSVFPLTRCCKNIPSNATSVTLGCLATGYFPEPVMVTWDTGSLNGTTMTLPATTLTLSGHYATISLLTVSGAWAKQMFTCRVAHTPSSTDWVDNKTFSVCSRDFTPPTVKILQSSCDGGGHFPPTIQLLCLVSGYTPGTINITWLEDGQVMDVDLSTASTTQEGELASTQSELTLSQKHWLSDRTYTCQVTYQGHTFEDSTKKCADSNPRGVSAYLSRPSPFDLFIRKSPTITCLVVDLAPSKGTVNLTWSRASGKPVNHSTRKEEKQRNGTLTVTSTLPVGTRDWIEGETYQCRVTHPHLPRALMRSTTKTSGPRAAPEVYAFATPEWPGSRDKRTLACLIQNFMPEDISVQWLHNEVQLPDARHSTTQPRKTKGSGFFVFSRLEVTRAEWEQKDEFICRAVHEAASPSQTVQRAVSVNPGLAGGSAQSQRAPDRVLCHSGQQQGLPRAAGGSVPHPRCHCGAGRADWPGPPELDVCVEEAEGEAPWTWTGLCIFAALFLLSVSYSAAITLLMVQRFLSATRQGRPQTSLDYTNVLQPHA

B1: 026 sdab (VHH)
VHH: EVQLLESGGGLVQPGGSLRLSCAASGFTFGNYDMAWVRQAPGKRPEWVSSIDTGGDITHYADSVKGRFTISRDNAKNTLYLQMNSLRPEDTAVYWCATDEEYALGPNEFDYYGQGTLVTVSS
Which surface IgE left on basophils after 15 min with 026 sdab [1] does the source give for B1 here?
The surface IgE left on basophils after 15 min with 026 sdab was 30%.

What about the surface IgE left on basophils after prolonged incubation with 026 sdab [1] of the same binder?
Its surface IgE left on basophils after prolonged incubation with 026 sdab is 20%.

What about the Kd (IgE Fc Cε2–4 (human)) of the same binder?
Its Kd is 1.4 nM.

Source: publication PMC5750235
